Values of other authors as cited in publication PMC4485553.

Target: human IgG1, wild type (UniProt P01857)
Assay: not stated in this review
Conditions: pH 6

KD: 0.032 µM
Substance: FcRn (neonatal Fc receptor), mouse
